According to the Immune Epitope Database (IEDB):
One block for each sequence: values may come before it.

Assays:
HLA-A*03:01 [1] = test: IEDB peptide-MHC binding, purified MHC/competitive/fluorescence; filed as Kd, often an IC50 or EC50 that approximates it; ≥ and ≤ were set here for values at or beyond the usual limits of such assays
HLA-B*15:03 = test: IEDB peptide-MHC binding, purified MHC/competitive/radioactivity; filed as Kd, often an IC50 or EC50 that approximates it; ≥ and ≤ were set here for values at or beyond the usual limits of such assays
HLA-B*08:01 = test: as above
HLA-A*32:01 = test: as above
HLA-A*30:01 = test: as above
HLA-B*15:01 [2] = test: as above
HLA-A*31:01 [3] = test: IEDB peptide-MHC binding, purified MHC/competitive/fluorescence; filed as Kd, often an IC50 or EC50 that approximates it; ≥ and ≤ were set here for values at or beyond the usual limits of such assays
HLA-A*03:01 [4] = test: IEDB peptide-MHC binding, purified MHC/direct/fluorescence; filed as Kd, often an IC50 or EC50 that approximates it; ≥ and ≤ were set here for values at or beyond the usual limits of such assays
HLA-A*11:01 [5] = test: IEDB peptide-MHC binding, purified MHC/competitive/fluorescence; ≥ and ≤ were set here for values at or beyond the usual limits of such assays
HLA-A*03:01 [6] = test: as above
HLA-A*02:01 [7] = test: as above
HLA-B*15:01 [8] = test: IEDB peptide-MHC binding, purified MHC/competitive/fluorescence; filed as Kd, often an IC50 or EC50 that approximates it; ≥ and ≤ were set here for values at or beyond the usual limits of such assays; details: source organism: Escherichia coli E22
HLA-A*24:02 = test: IEDB peptide-MHC binding, purified MHC/competitive/fluorescence; ≥ and ≤ were set here for values at or beyond the usual limits of such assays
HLA-A*11:01 [9] = test: IEDB peptide-MHC binding, purified MHC/direct/fluorescence; filed as Kd, often an IC50 or EC50 that approximates it; ≥ and ≤ were set here for values at or beyond the usual limits of such assays
HLA-A*68:01 = test: IEDB peptide-MHC binding, purified MHC/competitive/radioactivity; filed as Kd, often an IC50 or EC50 that approximates it; ≥ and ≤ were set here for values at or beyond the usual limits of such assays; details: source organism: Dengue virus 1 Brazil/97-11/1997
HLA-A*02:12 = test: IEDB peptide-MHC binding, purified MHC/direct/fluorescence; filed as Kd, often an IC50 or EC50 that approximates it; ≥ and ≤ were set here for values at or beyond the usual limits of such assays; details: source organism: Mycobacterium tuberculosis str. Haarlem
HLA-A*69:01 = test: as above
HLA-A*02:11 = test: as above; details: source organism: Mycobacterium tuberculosis str. Haarlem
HLA-A*31:01 [10] = test: as above; details: source organism: Escherichia coli O157:H7
HLA-B*18:01 = test: as above; details: source organism: Escherichia coli O157:H7
HLA-B*48:01 = test: as above; details: source organism: Escherichia coli O157:H7
HLA-B*15:17 = test: as above; details: source organism: Escherichia coli O157:H7
HLA-B*58:01 = test: as above; details: source organism: Escherichia coli O157:H7
HLA-A*01:01 = test: as above; details: source organism: Escherichia coli O157:H7
HLA-B*27:05 = test: as above; details: source organism: Escherichia coli O157:H7
HLA-B*40:01 = test: as above; details: source organism: Escherichia coli O157:H7
HLA-A*02:01 [11] = test: as above; details: source organism: Escherichia coli O157:H7
HLA-B*57:01 = test: as above; details: source organism: Escherichia coli O157:H7
HLA-A*68:02 = test: as above; details: source organism: Escherichia coli O157:H7
HLA-B*44:02 = test: as above; details: source organism: Escherichia coli O157:H7
HLA-B*07:02 = test: as above; details: source organism: Escherichia coli O157:H7
HLA-B*15:01 [12] = test: as above; details: source organism: Escherichia coli O157:H7
[13] = source organism: Vaccinia virus WR
[14] = source organism: Zaire ebolavirus
[15] = source organism: Sudan ebolavirus
[16] = source organism: Escherichia coli E22
[17] = source organism: Vaccinia virus Copenhagen
[18] = source organism: Dengue virus 1 Brazil/97-11/1997
[19] = source organism: Mammarenavirus lassaense
[20] = source organism: Vaccinia virus
[21] = source organism: Giardia lamblia ATCC 50803
[22] = source organism: Mycobacterium tuberculosis
[23] = source organism: Escherichia coli O157:H7

Sequence: VTRFESLK
Kd (HLA-A*03:01 [1]; source organism: Influenza A virus (A/Swine/Minnesota/55551/2000(H1N2))): ≥ 20000 nM

Sequence: HLYNILNNI
Kd (HLA-B*15:03; [13]): 1400 nM | Kd (HLA-B*08:01; [13]): 1970 nM | Kd (HLA-A*32:01; [13]): 72.6 nM | Kd (HLA-A*30:01; [13]): 1450 nM | Kd (HLA-B*15:01 [2]; [13]): 1480 nM

Sequence: LMQGSTLPR
Kd (HLA-A*31:01 [3]; source organism: Influenza A virus (A/swine/Italy/1509-6/97(H1N1))): 30.2 nM | Kd (HLA-A*03:01 [4]; source organism: Influenza A virus (A/South Carolina/1/1918(H1N1))): 6000 nM

Sequence: MVQVHSQGR
IC50 (HLA-A*11:01 [5]; [14]): 4760 nM | IC50 (HLA-A*03:01 [6]; [14]): 61400 nM

Sequence: NKFFEVIFF
Kd (HLA-B*15:03; [13]): 18.8 nM

Sequence: SQVSSTELF
Kd (HLA-B*15:03; [13]): 1.83 nM

Sequence: MVLASTTAK
Kd (HLA-A*31:01 [3]; source organism: Influenza A virus (A/swine/Hannover/1/1981(H1N1))): 46.1 nM | Kd (HLA-A*03:01 [4]; source organism: Influenza A virus (A/turkey/MN/735/79(H6N2))): 15.9 nM

Sequence: SLLQLPRDK
IC50 (HLA-A*11:01 [5]; [15]): 5080 nM | IC50 (HLA-A*03:01 [6]; [15]): 3840 nM | IC50 (HLA-A*02:01 [7]; [15]): 16500 nM

Sequence: AKSKFPRSM
Kd (HLA-B*15:03; [13]): 0.261 nM

Kd (HLA-A*03:01 [1]; [16]): 211 nM
Sequence: SVFESWLEK

Sequence: RLNWLTHLK
Kd (HLA-A*31:01 [3]; source organism: Influenza A virus (A/CHU/2-524/2005(H3N2))): 2.5 nM | Kd (HLA-A*03:01 [4]; source organism: Influenza A virus (A/Nagasaki/N03/2005(H3N2))): 264 nM

Kd (HLA-A*31:01 [3]; [16]): 394 nM | Kd (HLA-A*03:01 [1]; [16]): ≥ 20000 nM | Kd (HLA-B*15:01 [8]): ≥ 20000 nM
Sequence: EMFIIKYFK

Sequence: VSFSPSLTF
Kd (HLA-B*15:03; [17]): 1.22 nM | Kd (HLA-A*32:01; [17]): 736 nM | Kd (HLA-B*15:01 [2]; [17]): 1.26 nM

Sequence: LTGGTGVGK
IC50 (HLA-A*11:01 [5]; source organism: Variola virus): 998 nM | IC50 (HLA-A*03:01 [6]; source organism: Variola virus): 5750 nM | IC50 (HLA-A*24:02; source organism: Variola virus): 38800 nM

Sequence: FKFNSQVSI
Kd (HLA-B*15:03; [13]): 1.24 nM

Sequence: KTFDTEYQK
Kd (HLA-A*31:01 [3]; source organism: dengue virus type 1): 128 nM | Kd (HLA-A*11:01 [9]; source organism: Dengue virus 1 Singapore/S275/1990): 12.5 nM | Kd (HLA-A*68:01): 4.6 nM | Kd (HLA-A*32:01; [18]): 7720 nM | Kd (HLA-A*30:01; [18]): 388 nM

Sequence: QRVIPVYQV
IC50 (HLA-A*11:01 [5]; [14]): 16200 nM | IC50 (HLA-A*03:01 [6]; [14]): ≥ 93500 nM | IC50 (HLA-A*02:01 [7]; [14]): ≥ 113000 nM

Sequence: KTLKYSNKI
Kd (HLA-B*15:03; [13]): 448 nM | Kd (HLA-B*08:01; [13]): 1180 nM | Kd (HLA-A*32:01; [13]): 1.9 nM | Kd (HLA-A*30:01; [13]): 37.5 nM | Kd (HLA-B*15:01 [2]; [13]): 123 nM

Sequence: TCKAFGLYK
IC50 (HLA-A*11:01 [5]; [13]): 1140 nM | IC50 (HLA-A*03:01 [6]; [13]): 6410 nM

Sequence: DYHKILTAG
IC50 (HLA-A*11:01 [5]; [14]): 58500 nM | IC50 (HLA-A*03:01 [6]; [14]): ≥ 164000 nM | IC50 (HLA-A*24:02; [14]): 39900 nM

Sequence: STFTRGAQK
Kd (HLA-A*31:01 [3]; [19]): 27 nM | Kd (HLA-A*11:01 [9]; [19]): 1.5 nM | Kd (HLA-A*03:01 [4]; [19]): 78.4 nM

Sequence: INNQLLLQK
IC50 (HLA-A*11:01 [5]; [20]): 2440 nM | IC50 (HLA-A*03:01 [6]; [20]): 64200 nM

Sequence: LRTYTILNR
IC50 (HLA-A*03:01 [6]; [15]): ≥ 286000 nM

Sequence: ITHPKYRKK
Kd (HLA-A*03:01 [1]; source organism: Vibrio antiquarius): ≥ 20000 nM

Sequence: NLQPPALSK
Kd (HLA-A*03:01 [1]; source organism: Rickettsia sibirica 246): 430 nM

Sequence: LVDYGLVSK
IC50 (HLA-A*11:01 [5]; [13]): 1330 nM | IC50 (HLA-A*03:01 [6]; [13]): 12500 nM

Sequence: SPGIRPRFL
Kd (HLA-B*15:03; [17]): 10300 nM | Kd (HLA-B*08:01; [17]): 55.8 nM | Kd (HLA-A*32:01; [17]): 2810 nM | Kd (HLA-A*30:01; [17]): 8430 nM | Kd (HLA-B*15:01 [2]; [17]): 1920 nM

Sequence: RQSSCKMAL
Kd (HLA-B*15:03; [13]): 18.8 nM

Sequence: TTHSKGATK
Kd (HLA-A*31:01 [3]; [21]): 454 nM | Kd (HLA-A*11:01 [9]; [21]): 246 nM | Kd (HLA-A*03:01 [4]; [21]): 337 nM

Kd (HLA-A*03:01 [1]; source organism: Escherichia coli B7A): 1780 nM
Sequence: LMMTATGEY

Sequence: QTIVFIWFI
Kd (HLA-B*15:03; [20]): 1030 nM | Kd (HLA-B*08:01; [20]): 16900 nM | Kd (HLA-A*32:01; [20]): 1760 nM | Kd (HLA-A*30:01; [20]): 6240 nM | Kd (HLA-B*15:01 [2]; [20]): 253 nM

Sequence: LLDEGKQSL
Kd (HLA-A*02:12): 4 nM | Kd (HLA-A*69:01; [22]): 7000 nM | Kd (HLA-A*02:11): 4 nM

Sequence: IMYPSPNGH
Kd (HLA-A*03:01 [1]; source organism: Shigella sonnei Ss046): 7.7 nM

Kd (HLA-A*31:01 [10]): ≥ 20000 nM | Kd (HLA-A*11:01 [9]; [23]): ≥ 20000 nM | Kd (HLA-B*18:01): 318 nM | Kd (HLA-B*48:01): ≥ 20000 nM | Kd (HLA-A*03:01 [4]; [23]): ≥ 20000 nM | Kd (HLA-B*15:17): ≥ 20000 nM | Kd (HLA-B*58:01): ≥ 20000 nM | Kd (HLA-A*01:01): ≥ 20000 nM | Kd (HLA-B*27:05): ≥ 20000 nM | Kd (HLA-B*40:01): 2270 nM | Kd (HLA-A*02:01 [11]): ≥ 20000 nM | Kd (HLA-B*57:01): ≥ 20000 nM | Kd (HLA-A*68:02): ≥ 20000 nM | Kd (HLA-A*69:01; [23]): ≥ 20000 nM | Kd (HLA-B*44:02): ≥ 20000 nM | Kd (HLA-B*07:02): ≥ 20000 nM | Kd (HLA-B*15:01 [12]): ≥ 20000 nM
Sequence: YECTSRHFT

Sequence: AVNNLVELK
Kd (HLA-A*31:01 [3]; source organism: Lassa virus Josiah): 77.5 nM | Kd (HLA-A*11:01 [9]; [19]): 11.2 nM | Kd (HLA-A*03:01 [4]; [19]): 2400 nM

Sequence: LIPFLILFI
Kd (HLA-B*15:03; [17]): 195 nM | Kd (HLA-B*08:01; [17]): 49.7 nM | Kd (HLA-A*32:01; [17]): 12100 nM | Kd (HLA-A*30:01; [17]): 97 nM | Kd (HLA-B*15:01 [2]; [17]): 471 nM

Sequence: LLGQNTPAI
Kd (HLA-A*02:12): 4 nM | Kd (HLA-A*69:01; [22]): 1190 nM

Sequence: ALTKNYLSF
Kd (HLA-B*15:03; [13]): 40.1 nM

Sequence: KSVEDVSAF
Kd (HLA-B*15:03; [13]): 13.6 nM
